# Measurements: patent US20210113484A1 (NATIONAL UNIVERSITY OF SINGAPORE, published 2021)
# Experiments:
# [1] = system: h6NE-GFPuvTEV (h6NE-GFPuv fusion with a TEV protease site between the AfFtn subunit and GFPuv) [GFP: P42212]
# [2] = biological target: T1, AfFtn with truncated C-terminus and E65K, E128K, E131K, D138A, net positive interior [AfFtnΔC(+)] (Archaeoglobus fulgidus); test: gel densitometry of purified protein fractions
# T1 construct: 24 copies in the empty shell; about 23 copies where it surrounds one fusion subunit; also called tES(+)
# T1 chain: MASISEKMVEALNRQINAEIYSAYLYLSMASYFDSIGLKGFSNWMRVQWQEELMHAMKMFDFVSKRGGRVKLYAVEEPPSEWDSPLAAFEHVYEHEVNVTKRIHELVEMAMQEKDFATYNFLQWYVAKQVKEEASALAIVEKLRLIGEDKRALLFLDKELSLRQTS
# [3] = biological target: T2, native rLuc (un-fused Renilla luciferase) (Renilla reniformis, UniProt P27652 1-311); test: cell-free encapsulation by pH shift 5.8 to 8; rLuc luminescence
# T2 sequence (looked up): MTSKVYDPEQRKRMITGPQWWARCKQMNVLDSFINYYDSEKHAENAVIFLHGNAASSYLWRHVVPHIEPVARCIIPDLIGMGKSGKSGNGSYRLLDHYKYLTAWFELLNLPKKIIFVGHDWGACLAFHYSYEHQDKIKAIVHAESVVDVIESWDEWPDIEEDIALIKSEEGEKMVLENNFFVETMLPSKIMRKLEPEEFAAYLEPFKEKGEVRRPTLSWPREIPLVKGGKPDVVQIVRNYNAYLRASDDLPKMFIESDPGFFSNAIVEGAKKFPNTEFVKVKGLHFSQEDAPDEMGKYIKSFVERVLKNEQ
# Procedure: The TMB substrate was added for color development and the reaction stopped using 2M H₂SO₄ after 5 mins. Absorbance was recorded at 450 nm. All luciferase reactions took place at ambient temperature (24-27° C.) in a 96-well plate with white interior and were performed at least in triplicates. Following chromatographic purification, equimolar concentrations (500 nM) of purified h6NE-luciferase(+), h6NEluciferase(−), and h6NE-luciferase(+/−) were evaluated for luciferase activity using D-luciferin potassium salt as a substrate. The reaction was initiated by injecting 50μl buffer containing D-luciferin potassium salt (final concentration 200 μM), 50 mM Tris-Cl pH 7.5, 10 mM MgCl₂, 2 mM EDTA, 100 μM ATP, 0.1% BSA, to a 50μl protein sample. Purified tES(+)F116H/tES-rLuc, tES-rLuc, and rLuc were evaluated using Renilla luciferase kit (Promega) with some modifications in the manufacturer's instructions. […] The signal was integrated for 1 min with a 2 s delay and luminescence was measured in Relative Light Units (RLU). […] The steady-state initial velocities, VO, (RLU/sec) for h6NE-luciferase(+/−) and recombinant luciferase were determined by initiating the reaction with different concentration of D-luciferin potassium salt. […] All readings were recorded on a Perkin Elmer Plate reader. […]
# [4] = biological target: T3, native HRPC (un-fused horseradish peroxidase isoenzyme C) (horseradish, UniProt P00433 31-338); test: cell-free encapsulation by pH shift 5.8 to 8; HRPC activity and thermal shift
# T3 sequence (looked up): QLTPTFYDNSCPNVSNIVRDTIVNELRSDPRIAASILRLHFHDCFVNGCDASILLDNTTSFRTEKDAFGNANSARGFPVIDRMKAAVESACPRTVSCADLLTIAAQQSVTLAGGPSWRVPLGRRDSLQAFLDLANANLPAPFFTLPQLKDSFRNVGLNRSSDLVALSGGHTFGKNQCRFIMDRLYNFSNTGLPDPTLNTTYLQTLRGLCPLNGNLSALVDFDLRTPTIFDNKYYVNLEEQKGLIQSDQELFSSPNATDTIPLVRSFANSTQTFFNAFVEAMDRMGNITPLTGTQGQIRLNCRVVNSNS
# Procedure: (§1) With increasing amount of HRPC, denaturation temperature of tES(+)F116H increases. […] Negligible change in the denaturation temperature for 60:10 tES(−)F116H:HRPC indicates unsuccessful encapsulation of HRPC within tES(−)F116H as compared to tES(+)F116H.
# (§2) GFP, and HRPC and rLuc activities were determined through fluorescence, colorimetric and luminescence assays, respectively, both from cell lysate and purified proteins. For GFP, fluorescence of tES(+)F116H/tES-GFPuv, tES-GFPuv, and GFPuv was read at 508 nm in a 96-well black polystyrene plate (Fisher Scientific) with excitation wavelength fixed at 395 nm was performed or fluorescence read at 508 nm in a 96-well black polystyrene plate (Fisher Scientific) using supernatant from 10-mg bacterial pellet (induced at 0.8 OD and cultured for 24h). The activity of tES(+)F116H/tES-HRPC, tES-HRPC, and HRPC was assayed using TMB substrate in a 96-well crystal-clear polystyrene plate (Greiner Bio-One). Briefly, fractions were incubated in assay buffer containing 25 mM Tris-HCl pH-8.0, 5 mM CaCl₂, 2.5 μM hemin for 5 mins. […] Absorbance was recorded at 450 nm. […] Following chromatographic purification, equimolar concentrations (500 nM) of purified h6NE-luciferase(+), h6NEluciferase(−), and h6NE-luciferase(+/−) were evaluated for luciferase activity using D-luciferin potassium salt as a substrate.
# native GFPuv (un-fused) [5] = biological target: T4, native GFPuv (un-fused) (UniProt P42212 1-238 = GFP); test: cell-free encapsulation by pH shift 5.8 to 8; GFPuv fluorescence and thermal shift
# T4 construct: Any tag on the un-fused protein is not described
# Procedure: (§3) FIGS. 18A-18D show effect of different molar ratios and charge of tES subunits on native GFPuv encapsulation in vitro. […] With increasing amount of GFPuv, denaturation temperature of tES(+)F116H increases. […] Negligible change in the denaturation temperature for 60:10 tES(−)F116H:GFPuv indicates unsuccessful encapsulation of GFPuv within tES(−)F116H as compared to tES(+)F116H. In 18A+ve control is tES:tES-GFPuv (0.5 μM); −ve control is GFPuv. In 18B+ve controls are tES(+)F116H:tES-GFPuv and tES(−)F116H:tES-GFPuv.
# as §2, with “24h).” for “24h). The activity of tES(+)F116H/tES-HRPC, tES-HRPC, and HRPC was assayed using TMB substrate in a 96-well crystal-clear polystyrene plate (Greiner Bio-One). Briefly, fractions were incubated in assay buffer containing 25 mM Tris-HCl pH-8.0, 5 mM CaCl₂, 2.5 μM hemin for 5 mins.”
# native GFPuv (un-fused) [6] = biological target: T4, native GFPuv (un-fused); test: cell-free encapsulation by pH shift 5.8 to 8; thermal shift assay
# Procedure: as §3
# Inclusion body purification protocol is same as herein described. […] Fractions around the eluted peak were collected and their activity analyzed to identify fractions containing the POI.
# [7] = biological target: T3, native HRPC (un-fused horseradish …); test: cell-free encapsulation by pH shift 5.8 to 8; SEC fractions' HRPC activity and thermal shift assay
# Procedure: as §1, §2
molecule,measurement,setting,value
TEVprotease (Sigma),"TEV protease cleavage, Western blot",[1],the protease cleaved h6NE-GFPuvTEV
"h6NE-HRPC (His-tagged AfFtn subunit with truncated C-terminus fused to horseradish peroxidase isoenzyme C, C-terminal c-Myc epitope) (other, also called tES-HRPC; tES-HRP; not shown: N-terminal His-tag from pBAD/HisB) MASISEKMVEALNRQINAEIYSAYLYLSMASYFDSIGLKGFSNWMRVQWQEELMHAMKMFDFVSERGGRVKLYAVEEPPSEWDSPLAAFEHVYEHEVNVTKRIHELVEMAMQEKDFATYNFLQWYVAEQVEEEASALDIVEKLRLIGEDKRALLFLDKELSLRQTSQLTPTFYDNSCPNVSNIVRDTIVNELRSDPRIAASILRLHFHDCFVNGCDASILLDNTTSFRTEKDAFGNANSARGFPVIDRMKAAVESACPRTVSCADLLTIAAQQSVTLAGGPSWRVPLGRRDSLQAFLDLANANLPAPFFTLPQLKDSFRNVGLNRSSDLVALSGGHTFGKNQCRFIMDRLYNFSNTGLPDPTLNTTYLQTLRGLCPLNGNLSALVDFDLRTPTIFDNKYYVNLEEQKGLIQSDQELFSSPNATDTIPLVRSFANSTQTFFNAFVEAMDRMGNITPLTGTQGQIRLNCRVVNSNS",ratio of fusion subunit to encapsulating tES subunits,[2],19 tES subunits per fusion subunit
"tES-rLuc (His-tagged AfFtn subunit with truncated C-terminus fused to Renilla luciferase) (other, also called tES-rLuc fusion subunit; not shown: N-terminal His-tag from pBAD/HisB; Renilla luciferase (rLuc), a 36 kDa protein from sea pansy, Renilla reniformis) MASISEKMVEALNRQINAEIYSAYLYLSMASYFDSIGLKGFSNWMRVQWQEELMHAMKMFDFVSERGGRVKLYAVEEPPSEWDSPLAAFEHVYEHEVNVTKRIHELVEMAMQEKDFATYNFLQWYVAEQVEEEASALDIVEKLRLIGEDKRALLFLDKELSLRQTS",ratio of fusion subunit to encapsulating tES subunits,[2],20 tES subunits per fusion subunit
"tES(+)F116H (other, also called F116HAfFtnΔC(+); AfFtn net positive variant subunit with truncation of unstructured C-terminus and F116H mutation) MASISEKMVEALNRQINAEIYSAYLYLSMASYFDSIGLKGFSNWMRVQWQEELMHAMKMFDFVSKRGGRVKLYAVEEPPSEWDSPLAAFEHVYEHEVNVTKRIHELVEMAMQEKDHATYNFLQWYVAKQVKEEASALAIVEKLRLIGEDKRALLFLDKELSLRQTS",binding result,[3],binds
same,binding result,[4],binds
same,binding result,native GFPuv (un-fused) [5],binds
"tES(-)F116H (other, also called AfFtn subunit with truncation of unstructured C-terminus and F116H mutation) MASISEKMVEALNRQINAEIYSAYLYLSMASYFDSIGLKGFSNWMRVQWQEELMHAMKMFDFVSERGGRVKLYAVEEPPSEWDSPLAAFEHVYEHEVNVTKRIHELVEMAMQEKDHATYNFLQWYVAEQVEEEASALDIVEKLRLIGEDKRALLFLDKELSLRQTS",binding result,native GFPuv (un-fused) [6],no binding (tested: 60:10 molar ratio)
same,binding result,[7],no binding (tested: molar ratios of 60:8 and 60:10)
